Two molecules from publication PMC4924860, “Environmental Factors Modulating the Stability and Enzymatic Activity of the Petrotoga mobilis Esterase (PmEst)” (PLoS ONE, 2016) can be followed below.

The target in data set [1] is Petrotoga mobilis esterase (PmEst) (Petrotoga mobilis). Briefly: SEC; Superdex 200 10/300 GL column, calibrated with carbonic anhydrase, ovalbumin, bovine serum albumin, conalbumin and aldolase; purified PmEst in aqueous solution. For orientation: SEC sorts molecules by how far they enter the pores of the column.
Substrate in data set [2]: CC(=O)Oc1ccc([N+](=O)[O-])cc1
Briefly: purified protein. The data set is classed as biochemical, Petrotoga mobilis. Particulars: 10 mM sodium phosphate pH 7.4, 500 nM enzyme, acetonitrile from substrate stock, temperature of the kinetics not stated.

Substrate in data set [3]: CCCC(=O)Oc1ccc([N+](=O)[O-])cc1
Briefly: purified protein. The data set is classed as biochemical, Petrotoga mobilis. Particulars: 10 mM sodium phosphate pH 7.4, 500 nM enzyme, acetonitrile from substrate stock, temperature of the kinetics not stated.

One may read the stoichiometry N as a count of units in the complex or per binding partner. In data set [1], “Petrotoga mobilis esterase (PmEst) (enzyme)” gave a stoichiometry N of 3.

B1: PmEst (Petrotoga mobilis SJ95) (protein)
chain: MALLEVNFMSRSLMRKVPIMVVLPMDKANLSGKSEITDNDNNTFKTLYLLHGIFGNYSDWVSETRIQRLAEGRNLAVVMPSGENSFYLDQPESGNFYGEFIGRELVNITRKMFPLSRKKEDTFIAGLSMGGYGAIRNGLKYHETFGCVAGLSSALNFEQMLDESYQVIACKKSAFGDPKEAILSDKNPKVLVKNIKENPLGQFPKMYMACGTEDNLINSNRDFRDFLIENNVDLTYEEGPGAHTWEFWDTYIEKVLDWLPLKKPS
notes: synthetic gene, modified pET28a, N-terminal His6-SUMO fusion cut by SUMO protease; E. coli Rosetta (DE3); PFAM PF00756 esterase
Broadly, the Km is the concentration of substrate that gives half-maximal velocity. The term kcat denotes the number of substrate molecules converted per active site and unit of time at saturation. A word on the kcat/Km: it is the turnover number divided by the Michaelis constant. In the case of B1, in the data set “purified protein [2]”, the Km was found to be 1430 ± 170 µM, the kcat worked out at 29.2 ± 1.2 s⁻¹ and the kcat/Km stood at 20500 ± 1600 M⁻¹ s⁻¹. Further, in “purified protein [3]”, the Km was determined as 160 ± 10 µM, the kcat was determined as 14.1 ± 0.29 s⁻¹ and the kcat/Km was 88100 ± 6000 M⁻¹ s⁻¹.
